From patent publication US20150086555A1
Changes are numbered by the printed parent chain.

B1: TCN-539 (5056_A08) (antibody, V domains shown)
VH: QVQLVESGGGVVQPGRSLRLSCAASEITFITYAMHWVRQAPGKGLEWVALISDDGSNKFYADSVKGRFTISRDNSKNTLYLQMNSLRAEDTAAYYCAREGVYFDSGTYRGYFDYWGQETLVTVSS
VL: EIVLTQSPATLSLSPGERATLSCRASQSVSSYLAWYQQKPGQAPRLLIYDASNRATGIPARFSGSGSGTDFTLTISSLEPEDFAVYYCQQRSHWPPITFGQGTRLEIK
B2: TCN-552 (5249_I23) (antibody, V domains shown)
VH: QVQVVQSGAEVKKPGSSVRVSCQASGGTFMNYAIIWVRRAPGQGLEWMGGIIPVFPTPNYAQMFQGRVTISTDESRSTSFLELTNLRYEDTAVYYCARRIYHGGNSGFDFWGQGTLVTVSS
VL: EIVLTQSPATLSLSPGERATLSCRASQSVGNYLAWYQQKPGQAPRLLIYDSSNRAPGIPARFSGSGSGTDFTLTISSLAPEDFAVYYCQQRSKWPPMYSFGHGTKLEIK
B3: TCN-553 (5261_C18) (antibody, V domains shown)
VH: QVQVVQSGTEVKKPGSSVKVSCQTSGGRFMSYAITWVRQAPGQGLEWMGGIVPVFGTANYAQKFQGRVTITTDDSTRTAYMELSSLRSEDTAVYYCGFRYGSGYGFDSWGQGTLVTVSS
VL: EIVLTQSPGTLSLSPGERATLSCRASQSVSSSYLAWYQKKPGQAPRLLIYGASTRATGIPDRFTGSGSGTDFTLSISRLEPEDFAVYYCQHFGTSVFTFGGGTKVEIK
B4: TCN-555 (5246_L16) (antibody, V domains shown)
VH: QVQLVQSGAEVKRPGSSVKVSCTASGGIFRKNAISWVRQAPGQGLEWMGGIIAVFNTANYAQKFQNRVKITADESGNTAYMELSSLTSDDTAVYYCASHPKYFYGSGSYPDFWGQGTLVTVSS
VL: QSALTQPRSVSGSPGQSITISCTGGSSDIGASNSVSWYQQHPGKAPKLVIFDVTERPSGVPHRFSGSKSGNTASLTVSGLQPDDEADYFCCAYGGKYLVVFGGGTKVTVL
B5: TCN-563 (5237_B21) (antibody, V domains shown)
VH: B4 VH with V5A, N66G, T87R
VL: B4 VL with I18V, G25S, I29V, F51Y, D83E

molecular target: recombinant homotrimeric HA A/northern shoveler/California/HKWF115/07 H6N4 (Influenza A virus A/northern shoveler/California/HKWF115/2007(H6N1)); test: protein microarray, purified IgG, trimeric HA; settings: remark: other sources report otherwise

Row | Binder | Trimeric HA Binding: RLU
1 | B1 | 124 RLU
2 | B2 | 8970 RLU
3 | B3 | 20200 RLU
4 | B4 | 15600 RLU

molecular target: recombinant homotrimeric HA A/Egypt/3300-NAMRU3/08 H5N1 (Influenza A virus A/Egypt/3300-NAMRU3/2008(H5N1)); test: protein microarray, purified IgG, trimeric HA; settings: remark: other sources report otherwise

Row | Binder | Trimeric HA Binding: RLU
5 | B2 | 20300 RLU
6 | B3 | 24600 RLU
7 | B4 | 20200 RLU

molecular target: recombinant homotrimeric HA A/Anhui/1/05 H5N1 (Influenza A virus A/Anhui/1/2005(H5N1)); test: protein microarray, purified IgG, trimeric HA; settings: remark: other sources report otherwise

Row | Binder | Trimeric HA Binding: RLU
8 | B1 | 570 RLU
9 | B2 | 4520 RLU
10 | B3 | 9030 RLU
11 | B4 | 6630 RLU

molecular target: recombinant homotrimeric HA A/Netherlands/219/03 H7N7 (Influenza A virus A/Netherlands/219/03(H7N7)); test: protein microarray, purified IgG, trimeric HA; settings: remark: other sources report otherwise

Row | Binder | Trimeric HA Binding: RLU
12 | B1 | 161 RLU
13 | B2 | 470 RLU
14 | B3 | 499 RLU
15 | B4 | 1330 RLU

molecular target: recombinant homotrimeric HA A/Hong Kong/2108/03 H9N2 (Influenza A virus A/HK/2108/2003(H9N2)); test: protein microarray, purified IgG, trimeric HA; settings: remark: other sources report otherwise

Row | Binder | Trimeric HA Binding: RLU
16 | B1 | 140 RLU
17 | B2 | 161 RLU
18 | B3 | 172 RLU
19 | B4 | 302 RLU

molecular target: recombinant homotrimeric HA A/California/4/09 H1N1 (Influenza A virus A/California/04/2009(H1N1)); test: protein microarray, purified IgG, trimeric HA; settings: remark: other sources report otherwise

Row | Binder | Trimeric HA Binding: RLU
20 | B1 | 129 RLU
21 | B2 | 23900 RLU
22 | B3 | 25100 RLU
23 | B4 | 25500 RLU

molecular target: recombinant homotrimeric HA A/Vietnam/1203/04 H5N1 (Influenza A virus A/VietNam/1203/2004(H5N1)); test: protein microarray, purified IgG, trimeric HA; settings: remark: other sources report otherwise

Row | Binder | Trimeric HA Binding: RLU
24 | B1 | 636 RLU
25 | B2 | 27000 RLU
26 | B3 | 27200 RLU
27 | B4 | 26500 RLU

molecular target: recombinant homotrimeric HA A/South Carolina/1/18 H1N1 (Influenza A virus A/South Carolina/1/18 (H1N1)); test: protein microarray, purified IgG, trimeric HA; settings: remark: other sources report otherwise

Row | Binder | Trimeric HA Binding: RLU
28 | B1 | 60 RLU
29 | B2 | 14200 RLU
30 | B3 | 20600 RLU
31 | B4 | 13700 RLU

molecular target: recombinant homotrimeric HA A/chicken/Vietnam/NCVD-016/08 H5N1 (Influenza A virus A/chicken/Vietnam/NCVD-016/2008(H5N1)); test: protein microarray, purified IgG, trimeric HA; settings: remark: other sources report otherwise

Row | Binder | Trimeric HA Binding: RLU
32 | B1 | 144 RLU
33 | B2 | 4300 RLU
34 | B3 | 12400 RLU
35 | B4 | 4420 RLU

molecular target: recombinant homotrimeric HA A/Solomon Islands/3/06 H1N1 (Influenza A virus A/Solomon Islands/3/2006(H1N1)); test: protein microarray, purified IgG, trimeric HA; settings: remark: other sources report otherwise

Row | Binder | Trimeric HA Binding: RLU
36 | B1 | 1060 RLU
37 | B2 | 19400 RLU
38 | B3 | 24600 RLU
39 | B4 | 17900 RLU

molecular target: recombinant homotrimeric HA A/Hong Kong/1073/99 H9N2 (Influenza A virus A/Hong Kong/1073/99 (H9N2)); test: protein microarray, purified IgG, trimeric HA; settings: remark: other sources report otherwise

Row | Binder | Trimeric HA Binding: RLU
40 | B1 | 416 RLU
41 | B3 | 6690 RLU
42 | B4 | 3440 RLU

molecular target: recombinant homotrimeric HA A/Wisconsin/67/05 H3N2 (Influenza A virus A/Wisconsin/67/2005(H3N2)); test: protein microarray, purified IgG, trimeric HA; settings: remark: other sources report otherwise

Row | Binder | Trimeric HA Binding: RLU
43 | B1 | 8850 RLU
44 | B2 | 123 RLU
45 | B3 | 197 RLU
46 | B4 | 369 RLU

molecular target: recombinant homotrimeric HA A/Japan/305/57 H2N2 (Influenza A virus A/Japan/305/1957(H2N2)); test: protein microarray, purified IgG, trimeric HA; settings: remark: other sources report otherwise

Row | Binder | Trimeric HA Binding: RLU
47 | B1 | 544 RLU
48 | B2 | 24700 RLU
49 | B3 | 25700 RLU
50 | B4 | 10700 RLU

molecular target: recombinant homotrimeric HA A/Indonesia/5/05 H5N1 (Influenza A virus A/Indonesia/5/2005(H5N1)); test: protein microarray, purified IgG, trimeric HA; settings: remark: other sources report otherwise

Row | Binder | Trimeric HA Binding: RLU
51 | B2 | 23600 RLU
52 | B3 | 26000 RLU
53 | B4 | 15600 RLU

molecular target: recombinant homotrimeric HA A/Hong Kong/156/97 H5N1 (Influenza A virus A/Hong Kong/156/97 (H5N1)); test: protein microarray, purified IgG, trimeric HA; settings: remark: other sources report otherwise

Row | Binder | Trimeric HA Binding: RLU
54 | B1 | 103 RLU
55 | B2 | 16200 RLU
56 | B3 | 24000 RLU
57 | B4 | 13100 RLU

molecular target: recombinant soluble homotrimeric HA of A/northern shoveler/California/HKWF115/07 (H6) (Influenza A virus A/northern shoveler/California/HKWF115/2007(H6N1)); test: HA microarray, BCC supernatant; settings: remark: other sources report otherwise

Row | Binder | Trimeric HA Binding: RLU
58 | B1 | 814 RLU
59 | B2 | 38400 RLU
60 | B3 | 21700 RLU
61 | B4 | 49500 RLU
62 | B5 | 27300 RLU

molecular target: recombinant soluble homotrimeric HA of A/Japan/305/57 (H2N2) (Influenza A virus A/Japan/305/1957(H2N2)); test: HA microarray, BCC supernatant; settings: remark: other sources report otherwise

Row | Binder | Trimeric HA Binding: RLU
63 | B1 | 468 RLU
64 | B2 | 23800 RLU
65 | B3 | 25500 RLU
66 | B4 | 2130 RLU
67 | B5 | 6610 RLU

molecular target: recombinant soluble homotrimeric HA of A/Netherlands/219/03 (H7N7) (Influenza A virus A/Netherlands/219/03(H7N7)); test: HA microarray, BCC supernatant; settings: remark: other sources report otherwise

Row | Binder | Trimeric HA Binding: RLU
68 | B1 | 1700 RLU
69 | B2 | 1240 RLU
70 | B3 | 1840 RLU
71 | B4 | 3400 RLU
72 | B5 | 7520 RLU

molecular target: recombinant soluble homotrimeric HA of A/California/4/09 (H1N1) (Influenza A virus A/California/04/2009(H1N1)); test: HA microarray, BCC supernatant; settings: remark: other sources report otherwise

Row | Binder | Trimeric HA Binding: RLU
73 | B2 | 35300 RLU
74 | B3 | 20300 RLU
75 | B4 | 44900 RLU
76 | B5 | 45200 RLU

molecular target: recombinant soluble homotrimeric HA of A/duck/Yangzhou/02/05 (H8N4) (Influenza A virus A/duck/Yangzhou/02/2005(H8N4)); test: HA microarray, BCC supernatant; settings: remark: other sources report otherwise

Row | Binder | Trimeric HA Binding: RLU
77 | B2 | 13100 RLU
78 | B3 | 28000 RLU
79 | B4 | 18400 RLU
80 | B5 | 46700 RLU

molecular target: recombinant soluble homotrimeric HA of A/swine/Ontario/01911-2/99 (H4N6) (Influenza A virus A/Swine/Ontario/01911-2/99 (H4N6)); test: HA microarray, BCC supernatant; settings: remark: other sources report otherwise

Row | Binder | Trimeric HA Binding: RLU
81 | B1 | 1580 RLU
82 | B3 | 2580 RLU
83 | B5 | 4500 RLU

molecular target: recombinant soluble homotrimeric HA of A/Solomon Islands/3/06 (H1N1) (Influenza A virus A/Solomon Islands/3/2006(H1N1)); test: HA microarray, BCC supernatant; settings: remark: other sources report otherwise

Row | Binder | Trimeric HA Binding: RLU
84 | B1 | 239 RLU
85 | B2 | 39300 RLU
86 | B3 | 16300 RLU
87 | B4 | 26400 RLU
88 | B5 | 30000 RLU

molecular target: recombinant soluble homotrimeric HA of A/Wisconsin/67/05 (H3N2) (Influenza A virus A/Wisconsin/67/2005(H3N2)); test: HA microarray, BCC supernatant; settings: remark: other sources report otherwise

Row | Binder | Trimeric HA Binding: RLU
89 | B1 | 715 RLU
90 | B2 | 14800 RLU
91 | B3 | 20000 RLU
92 | B4 | 9800 RLU
93 | B5 | 40800 RLU

molecular target: recombinant soluble homotrimeric HA of A/Indonesia/5/05 (H5N1) (Influenza A virus A/Indonesia/5/2005(H5N1)); test: HA microarray, BCC supernatant; settings: remark: other sources report otherwise

Row | Binder | Trimeric HA Binding: RLU
94 | B2 | 43600 RLU
95 | B3 | 24400 RLU
96 | B4 | 34500 RLU
97 | B5 | 39500 RLU

molecular target: recombinant soluble homotrimeric HA of A/Vietnam/1203/04 (H5N1) (Influenza A virus A/VietNam/1203/2004(H5N1)); test: HA microarray, BCC supernatant; settings: remark: other sources report otherwise

Row | Binder | Trimeric HA Binding: RLU
98 | B1 | 545 RLU
99 | B2 | 2730 RLU
100 | B3 | 6560 RLU
101 | B4 | 876 RLU
102 | B5 | 4840 RLU

molecular target: recombinant soluble homotrimeric HA of A/Anhui/1/05 (H5N1) (Influenza A virus A/Anhui/1/2005(H5N1)); test: HA microarray, BCC supernatant; settings: remark: other sources report otherwise

Row | Binder | Trimeric HA Binding: RLU
103 | B1 | 91 RLU
104 | B2 | 4160 RLU
105 | B3 | 12600 RLU
106 | B4 | 1500 RLU
107 | B5 | 9580 RLU

molecular target: recombinant soluble homotrimeric HA of A/chicken/Vietnam/NCVD-016/08 (H5N1) (Influenza A virus A/chicken/Vietnam/NCVD-016/2008(H5N1)); test: HA microarray, BCC supernatant; settings: remark: other sources report otherwise

Row | Binder | Trimeric HA Binding: RLU
108 | B1 | 100 RLU
109 | B2 | 46200 RLU
110 | B3 | 24200 RLU
111 | B4 | 22300 RLU
112 | B5 | 41000 RLU
